Test results from the supplement of paper PMC12764529.
± gives the half width of the 95% confidence interval.

assay: folding stability dG unfold from trypsin proteolysis; higher = more stable
Procedure, shortened: (§1)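 Designed mini-proteins with no cysteine and under 80 residues were kept only if AlphaFold2 dimer inter-PAE was above 15. In a PA-tagged cDNA display construct, they were digested with trypsin and chymotrypsin and then sequenced. K50 was inferred by Bayesian fitting of counts, and unfolding free energy was derived per protease or combined against a sequence-predicted unfolded-state K50 and a shared folded-state K50.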

Row | Sequence | folding stability dG unfold [kcal/mol]
1 | SAPDKIEIPITFPNGYTFWIKIDPDRIRVTWMDNGLRREKEITPDGMIKLDFRMPNGRPIMSPTIPLEDSAG [r14_213_TrROS] | 0.984 ± 0.028
2 | SAGGSAGGKPKIIEEKELEFTRKDGKKVKIKLVKNEDGKVFAFNKDTGKVITLPLDELKALLKSSAGGSAGG [r6_579_TrROS_Hall] | 1.87 ± 0.052
3 | SAGGATLTEPETTVEVRFEKLPDGTVIRTTTTITPEGVTTTTEPVPVPPSPGASSEEELEALRAAAAAASAG [r5_272_JUSTAS] | 1.75 ± 0.037
4 | SAGGSMPYKTLEESESEIYDPSNGNVKYKVKTETILLPDGTILVKETIYDPETGTTETKTYTIPKGSAGGSA [r2_13_JUSTAS] | 1.54 ± 0.14
5 | SAGGMVDVTITFTKPDGTPETRPIPASSLPLEELVARIRALREAGVEAEVELPPSLPEEVREALARLLSAGG [r13_251_JUSTAS] | 1.78 ± 0.039
6 | SAGGSAGGSAPIKITEHTYNPGDGMVWATAEAEDPNGWKIKLTIWFFPDGNIQIEITEIVPSAGGSAGGSAG [r3_7_TrROS] | 2.45 ± 0.18
7 | SAGGSAGGSAGEPEIEIEVEERDGELVLRARVRDRETGEEYEVVVRVRPDGPIEITEIRPSAGGSAGGSAGG [r17_113_TrROS_Hall] | 3.11 ± 0.13
8 | SMSRPVEVEFELPLEGEGPVRLRATLVVDPESGVVEIPVRARFPEREEDVDLPPELLERLARRVLEELGGSA [r9_1136_TrMRF] | 0.744 ± 0.031
9 | SAGGSAMVKTADGKEVKVEKVIPLEEMSLEELKALAEKNNKPILIVDKKTKKVIVLTKEELEKLLKSAGGSA [r15_904_TrROS_Hall] | 0.858 ± 0.066
10 | SAGGSAGGAEIVEIEVRKEKRPDGKEVLTVKVKIKLENGEEIEVTVREGMTLEEALKKAKELLKSAGGSAGG [r6_986_TrROS_Hall] | 2.1 ± 0.086
11 | SAGFTLKLEFPDSTVDVKVTKVDPKNNIIYAEALLPGGEKLTLTYNPETGEIEIEKKKLERTPDGGLEESAG [r14_466_JUSTAS] | 0.279 ± 0.14
12 | SAGGMTPVPVKLLSEESSSVSTLPNGETVTTTPSLAYSPLGFYVLTTTTTYPATPVTTTTSTVVPLSVSAGG [r19_320_JUSTAS] | 0.458 ± 0.041
13 | SAGGSSMVDIKPGLVTEIRVETLPNGERVYVVEIPLENGERAVVKISEKFKSEEEKLKAIYEAVSKSAGGSA [r2_347_JUSTAS] | 1.71 ± 0.05
14 | SAGGDLEAKPFEITFVIKAKPFPTPDGRLVETPEKVFKLKVLVVRGPNETRLFVFDEDGNLLFTSNLSAGGS [r16_92_TrMRF] | 2.37 ± 0.051
15 | SMPGSITVEIEVEEEEDPERGGRRIKKLLIKKVTYKDEKGNSSDEVANEIKNALKEKLEKEGKPAEIELTSA [r9_261_JUSTAS] | 1.35 ± 0.081
16 | SAGGSAGGSKFEITEVSVELVEVDGKLYLKVSMTIKNEDGSTYKISLVYDLENNELYLSIEKVSAGGSAGGS [r12_1035_TrROS_Hall] | 4.12 ± 0.43

Row | Sequence | folding stability dG unfold [kcal/mol]
17 | SAGPGAELVAEFEVELGDRGARIRIYRAPDFLIIRVDYPDGTVPVFRIDPRTGRIVEVRTFRVRPDLPLSAG [r14_676_TrMRF] | 2.56 ± 0.045
18 | SAGGSAGGSGGVIDIPVYGEDGEKFIASAPKEVIEKAIKEGKPIEVYVVDDGKIIKKFTISTGSAGGSAGGS [r12_991_TrMRF] | -0.0801 ± 0.092
19 | SAGGSLVEKVKAIFAEKGIPVNPITTTPTSFTAKTPTGPFTVELPGNSTVTVSPDGTATVTVPPGLSSAGGS [r8_297_JUSTAS] | 1.41 ± 0.16
20 | SAGGSAGGSAEPPRYLVIELEVERSPEEIAEELRRRLGIERVEVEYDPETERLRVRVVVRLPSAGGSAGGSA [r18_275_TrROS_Hall] | 1.96 ± 0.048
21 | SAGGSAGGSAGGGMESKTTVTEEFSPEEVKTVTTVTTYPDGSVTETPENVKVPPGALAGSAGGSAGGSAGGS [r10_280_JUSTAS] | 0.1 ± 0.053
22 | SAGGSAGGSADPPRSVLKEERSPDGTTTYKLLEYPGERVLVVTRTPPDGTEEVVLIPEEELSAGGSAGGSAG [r3_167_JUSTAS] | 0.322 ± 0.071
23 | SAGGSSMQTTVFILPGPEVPVEEVKAKIAKELGLDFETVTFIPAPSREEAEALAAALGVDGIIVEVDSAGGS [r8_245_JUSTAS] | 2.43 ± 0.053
24 | SAGGLEILEVDPDTYTITIRFGDRPLEFTVPPDYPPTITITEDPDGSVTLTIEVPDRTETFTIPRELVESAG [r5_500_TrMRF] | 1.18 ± 0.021
25 | SAGGSAGGPPGEPPDVKVIPIEIEHERYNPDDGEMEVETIPFPIVIAPDGTIYHGDRPIPPDDISAGGSAGG [r6_515_TrROS] | 2.02 ± 0.24
26 | SAGGPISKKKIVTAPVSYDPATGKYTITLTYPDSTYTIPSDLSDLEEALKRAKEKLEKETGIPVETVLGSAG [r5_251_JUSTAS] | 0.576 ± 0.032
27 | SAGGSAEIWIWMPYDMIESLAKKAGDPNVKVEPVEPPDDNPGEPYWFKITLKDNGKPKREIEFWFPSAGGSA [r15_428_TrROS] | 1.34 ± 0.031
28 | SAGGSAGGSAGGMTTVTLTLTTELEVKDPEGKLHRETVTVTVTVPVPPSTLTDTTDLVSSAGGSAGGSAGGS [r10_168_JUSTAS] | 1.82 ± 0.1
29 | SAGGSAPEPIRFYFWWPGKIIEITIPPDEIEKVEIKPDNGDIDITVKLPGEEVEISITPGAIHVQTSAGGSA [r15_598_TrROS] | 1.56 ± 0.11
30 | SAGGSAGGSAEEPEFEIVSVEYDPETNVLTVVVRDKKTGRLYVFRFYPDGTVEVREVSLEDLSAGGSAGGSA [r18_521_TrROS_Hall] | 3.37 ± 0.064
31 | SAMPVVTLKAKVTIHSDPNGIEEKEIEITVTFPDPNVGLEEAKKKAEEAIKEYAEKNGLKIELEEITIESAG [r14_190_JUSTAS] | 1.19 ± 0.08

assay: folding stability dG unfold (combined trypsin and chymotrypsin); higher = more stable
Procedure, shortened: as §1

Row | Sequence | folding stability dG unfold [kcal/mol]
32 | SAPDKIEIPITFPNGYTFWIKIDPDRIRVTWMDNGLRREKEITPDGMIKLDFRMPNGRPIMSPTIPLEDSAG [r14_213_TrROS] | 1.54 ± 0.059
33 | SAGGSAGGKPKIIEEKELEFTRKDGKKVKIKLVKNEDGKVFAFNKDTGKVITLPLDELKALLKSSAGGSAGG [r6_579_TrROS_Hall] | 2.27 ± 0.054
34 | SAGGATLTEPETTVEVRFEKLPDGTVIRTTTTITPEGVTTTTEPVPVPPSPGASSEEELEALRAAAAAASAG [r5_272_JUSTAS] | 1.6 ± 0.18
35 | SAGGSMPYKTLEESESEIYDPSNGNVKYKVKTETILLPDGTILVKETIYDPETGTTETKTYTIPKGSAGGSA [r2_13_JUSTAS] | 1.79 ± 0.1
36 | SAGGMVDVTITFTKPDGTPETRPIPASSLPLEELVARIRALREAGVEAEVELPPSLPEEVREALARLLSAGG [r13_251_JUSTAS] | 1.96 ± 0.053
37 | SAGGSAGGSAPIKITEHTYNPGDGMVWATAEAEDPNGWKIKLTIWFFPDGNIQIEITEIVPSAGGSAGGSAG [r3_7_TrROS] | 3.83 ± 0.28
38 | SAGGSAGGSAGEPEIEIEVEERDGELVLRARVRDRETGEEYEVVVRVRPDGPIEITEIRPSAGGSAGGSAGG [r17_113_TrROS_Hall] | 2.72 ± 0.13
39 | SMSRPVEVEFELPLEGEGPVRLRATLVVDPESGVVEIPVRARFPEREEDVDLPPELLERLARRVLEELGGSA [r9_1136_TrMRF] | 1.1 ± 0.034
40 | SAGGSAMVKTADGKEVKVEKVIPLEEMSLEELKALAEKNNKPILIVDKKTKKVIVLTKEELEKLLKSAGGSA [r15_904_TrROS_Hall] | 1.33 ± 0.22
41 | SAGGSAGGAEIVEIEVRKEKRPDGKEVLTVKVKIKLENGEEIEVTVREGMTLEEALKKAKELLKSAGGSAGG [r6_986_TrROS_Hall] | 2.56 ± 0.14
42 | SAGFTLKLEFPDSTVDVKVTKVDPKNNIIYAEALLPGGEKLTLTYNPETGEIEIEKKKLERTPDGGLEESAG [r14_466_JUSTAS] | 1.13 ± 0.16
43 | SAGGMTPVPVKLLSEESSSVSTLPNGETVTTTPSLAYSPLGFYVLTTTTTYPATPVTTTTSTVVPLSVSAGG [r19_320_JUSTAS] | 0.223 ± 0.16
44 | SAGGSSMVDIKPGLVTEIRVETLPNGERVYVVEIPLENGERAVVKISEKFKSEEEKLKAIYEAVSKSAGGSA [r2_347_JUSTAS] | 2.24 ± 0.12
45 | SAGGDLEAKPFEITFVIKAKPFPTPDGRLVETPEKVFKLKVLVVRGPNETRLFVFDEDGNLLFTSNLSAGGS [r16_92_TrMRF] | 3.39 ± 0.064
46 | SMPGSITVEIEVEEEEDPERGGRRIKKLLIKKVTYKDEKGNSSDEVANEIKNALKEKLEKEGKPAEIELTSA [r9_261_JUSTAS] | 1.27 ± 0.37
